Test results taken from patent publication US20130177500A1 (TRUSTEES OF BOSTON UNIVERSITY, published 2013).
Each block holds one molecule with its values, some of them ahead of it.

Legend:
[1] = molecular target: T1, human dual endothelin-1/VEGF signal peptide receptor (hDEspR), on cells and tissue (human) (UniProt B0L3A2); experiment: cell-based or functional assay
T1 sequence: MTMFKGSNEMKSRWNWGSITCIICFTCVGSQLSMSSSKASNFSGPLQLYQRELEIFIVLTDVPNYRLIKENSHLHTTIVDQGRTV

[2] = molecular target: T1, human dual endothelin-1/VEGF signal peptide receptor (hDEspR), on cells and tissue (human); experiment: isotype-antibody microbubbles on HUVECs, 800× MB:cell ratio, microscopy (negative control)
[3] = molecular target: T2, human dual endothelin-1/VEGF signal peptide receptor (hDEspR), on cells and tissue (human, UniProt B0L3A2 1-85); experiment: cell-based or functional assay
T2 sequence: T1 sequence

[4] = molecular target: T3, antigenic hDEspR 9-aa peptide (NH2-terminal 9 amino acids of hDEspR) (human); experiment: indirect ELISA on the plate-coated antigenic 9-aa hDEspR peptide; two-fold serial dilutions of hybridoma supernatant holding mAb at 1 µg/ml (1 = 1/2 ... 12 = 1/4096); OD450
T3 construct: Free, unconjugated peptide coated on ELISA wells; The KLH conjugate was used only for immunisation; also called DEspR(1-9); free antigenic peptide
T3 peptide: MTMFKGSNE

% CFC, BRCA1 S1497 (Kinex antibody microarray, 30 min, 10 nM ligand) [1]: 32 % CFC
% CFC, CDK1/2 T14/Y15 (Kinex antibody microarray, 30 min, 10 nM ligand) [1]: 53 % CFC
% CFC, CDK1/2 Y15 (Kinex antibody microarray, 30 min, 10 nM ligand) [1]: 281 % CFC
% CFC, ERK1/2 T202 + Y204; T185 + Y187 (Kinex antibody microarray, 30 min, 10 nM ligand) [1]: 135 % CFC
% CFC, FAK Panspecific (Kinex antibody microarray, 30 min, 10 nM ligand) [1]: 205 % CFC
% CFC, FAK S722 (Kinex antibody microarray, 30 min, 10 nM ligand) [1]: 55 % CFC
% CFC, FAK S732 (Kinex antibody microarray, 30 min, 10 nM ligand) [1]: 62 % CFC
% CFC, Met Panspecific (Kinex antibody microarray, 30 min, 10 nM ligand) [1]: 384 % CFC
% CFC, PCNA Panspecific (Kinex antibody microarray, 30 min, 10 nM ligand) [1]: -47 % CFC
% CFC, PKCa T638/T641 (Kinex antibody microarray, 30 min, 10 nM ligand) [1]: 137 % CFC
% CFC, PKCe Panspecific (Kinex antibody microarray, 30 min, 10 nM ligand) [1]: 103 % CFC
% CFC, Raf1 S259 (Kinex antibody microarray, 30 min, 10 nM ligand) [1]: 12 % CFC
% CFC, SHP2 S576 (Kinex antibody microarray, 30 min, 10 nM ligand) [1]: 14 % CFC
% CFC, STAT1 S727 (Kinex antibody microarray, 30 min, 10 nM ligand) [1]: 86 % CFC
% CFC, STAT1 Y701 (Kinex antibody microarray, 30 min, 10 nM ligand) [1]: 95 % CFC
% CFC, STAT3 S727 (Kinex antibody microarray, 30 min, 10 nM ligand) [1]: 133 % CFC
% CFC, Shc1 or ShcA Y349, Y350 (Kinex antibody microarray, 30 min, 10 nM ligand) [1]: 9 % CFC
% CFC, Smad 1/5/9 S463 + S465/S465 + S467 (Kinex antibody microarray, 30 min, 10 nM ligand) [1]: 18 % CFC
% CFC, Src Y418 (Kinex antibody microarray, 30 min, 10 nM ligand) [1]: -11 % CFC
% CFC, Src Y529 (Kinex antibody microarray, 30 min, 10 nM ligand) [1]: -20 % CFC
Molecule: endothelin-1 (from UniProt P05305 53-73) (ligand)

% of HUVECs with bound MBs [2]: 6.8%
Molecule: isotype-antibody control microbubbles (MBC)

EC50, inhibition of MDA-MB-231 tumor cell invasiveness (Matrigel invasion assay) [3]: 3.55 nM
EC50, inhibition of total tube length per well (HUVEC tube formation assay) [3]: 4.34 nM
binding result [4]: binds
B1: anti-hDEspR 7C5B2 monoclonal antibody (antibody, IgG2b, V domains shown)
VH: QVQLKESGPGLVAPSQSLSITCTVSGFSLTSYDISWIRQPPGKGLEWLGVIWTGGGTNYNSAFMSRLSISKDNSKSQVFLKMNSLQTDDTAIYYCVRDRDYDGWYFDVWGAGTTVTVSS
VL: DVLMTQTPLSLPVSLGDQASISCRSSQSIVHSNGNTYLEWYLQKPGQSPKLLIYKVSNRFSGVPDRFSGSGSGTDFTLKISRVEAEDLGVYYCFQGSHVPYTFGGGTKLEIK
notes: Tested as hybridoma supernatant and as purified antibody; also called 7C5B2 antibody; 7C5B2 anti-DEspR antibody
